Laboratory results taken from PMC10714721.
Values joined by “and” are separate entries in the source; they are usually repeats but may differ in a detail not shown here. Equal values may be shown once.

Target: histidine-tagged VfmH (Dickeya dadantii)
Assay: not stated; oligomerization pattern of VfmH with or without c-di-GMP or ATP (Fig. S5); method not given

## histidine-tagged VfmH (natural protein)
  stoichiometry N: 6 and 2 and 3
